Square brackets hold non-standard residues; d marks the D form. Oic = O=C(O)[C@@H]1C[C@@H]2CCCC[C@@H]2N1; Dab = NCC[C@H](N)C(=O)O; Ac4c = NC1(C(=O)O)CCC1
Biological target: human CCR10 (human) (UniProt P46092)
Experiment: cell-based or functional assay

Sequence of human CCR10 (human) (P46092 whole entry): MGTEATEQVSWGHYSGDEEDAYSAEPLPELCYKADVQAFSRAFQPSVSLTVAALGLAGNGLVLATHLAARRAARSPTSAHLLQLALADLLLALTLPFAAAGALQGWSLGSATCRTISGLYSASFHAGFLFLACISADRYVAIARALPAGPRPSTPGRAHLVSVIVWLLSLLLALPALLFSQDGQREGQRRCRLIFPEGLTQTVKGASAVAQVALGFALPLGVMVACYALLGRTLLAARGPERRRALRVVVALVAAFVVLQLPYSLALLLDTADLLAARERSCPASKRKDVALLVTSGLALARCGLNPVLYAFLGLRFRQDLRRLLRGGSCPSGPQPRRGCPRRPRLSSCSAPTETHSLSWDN

Substance | IC50 (nM) Calcium Flux Assay | IC50 (nM) Chemotaxis Assay
cyclo(-Trp-Cyp-Trp-Dab-^DPro-Pro((4R)3CNBn)-) (peptide) | 27.9 nM | 3.8 nM
cyclo(-Trp-Cyp-Phe(4CF3)-Dab-^DPro-Oic-) (peptide) | 58.6 nM | 38.7 nM
cyclo(-Trp-4,4-AC-ThioTHP-Trp-Dab-^DPro-Oic-) (peptide) | 823 nM | 21.9 nM
cyclo(-Trp(6Cl)-Cyp-Trp-Ser-^DPro-Oic-) (peptide) | 6.3 nM | 5 nM
cyclo(-Trp-Cyp-Trp-Dab(Dab)-^DPro-Oic-) (peptide) | 567 nM | 50.2 nM
cyclo(-Tyr(4MeOCOBn)-Cyp-Trp-Dab-^DPro-Oic-) (peptide) | 16.7 nM | 2.3 nM
cyclo(-Phe(4CN)-Cyp-Phe(4F)-Ser-^DPro-Hyp(Bn)-) (peptide) | 1.9 nM | 13.5 nM
cyclo(-Trp-Cyp-2Nal-Gln-^DPro-Oic-) (peptide) | 35.3 nM | 
cyclo(-Trp-Cyp-Trp-Dab-^DPro-Pro((4S)cHex)-) (peptide) | 54.3 nM | 140 nM
cyclo(-Trp-Cyp-Trp-Dab-^DPro-Hyp(4CNBn)-) (peptide) | 48.9 nM | 143 nM
cyclo(-Trp-Cyp-Trp-Lys(Ac)-^DPro-Oic-) (peptide) | 28 nM | 2.3 nM
cyclo(-Phe(4CN)-Cyp-Trp-Ser-^DPro-Oic-) (peptide) | 80.3 nM | 
cyclo(-Trp-Cyp-2Nal-Dab-^DPip-Oic-) (peptide) | 70.5 nM | 
cyclo(-Trp-Cyp-Trp-Dab-^DPro-Hyp(Ph)-) (peptide) | 42 nM | 37 nM
cyclo(-OctG-Cyp-Trp-Dab-^DPro-Oic-) (peptide) | 40.4 nM | 4.2 nM
cyclo(-Trp-Cyp-Trp-Gln-^DPro-Oic-) (peptide) | 44.3 nM | 
cyclo(-Trp-Cyp-Trp-Dab-^DPro-Hyp(CONHPh)-) (peptide) | 150 nM | 184 nM
cyclo(-Trp-Cyp-Trp-Thr-^DPro-Oic-) (peptide) | 20.4 nM | 5.4 nM
cyclo(-Trp-Cyp-Trp-Dab-^DAze-Tic-) (peptide) | 57 nM | 
cyclo(-Trp-Cyp-Trp-Lys((5R)OH)-^DPro-Oic-) (peptide) | 333 nM | 7 nM
cyclo(-Trp-Cyp-Trp-Dab-^DPro-Hyp(Bn)-) (peptide) | 65.8 nM | 14 nM
cyclo(-Trp-Cyp-Trp-hSer(Me)-^DPro-Oic-) (peptide) | 12 nM | 1.8 nM
cyclo(-Trp-Cyp-Trp-Lys(Me)-^DPro-Oic-) (peptide) |  | 4.4 nM
cyclo(-Trp-Cyp-Trp-Dab-^DPro-Hyp(3CNBn)-) (peptide) | 127 nM | 50.7 nM
cyclo(-Trp-Cyp-Trp-Dab-^DPro-Pro((4S)F)-) (peptide) | 860 nM | 42 nM
cyclo(W[Ac4c]W[Dab][dP][Oic]) | 353 nM | 1.7 nM
cyclo(-Trp-Cyp-Trp-Dab(MEMCO)-^DPro-Oic-) (peptide) | 62.8 nM | 11.5 nM
cyclo(-Phe(4CF3)-Cyp-Trp-Dab-^DPip-Pro((4R)Ph)-) (peptide) | 14.8 nM | 22 nM
cyclo(-Trp(5OH)-Cyp-Trp-Arg-^DPro-Thz(5,5Me2)-) (peptide) | 214 nM | 109 nM

From patent US20120283168A1
